In paper PMC12781114, “Mechanistic and Molecular Dynamics Studies Reveal that Increased Loop 3 Mobility Alters Substrate Capture in an NADH:Quinone Oxidoreductase” (Biochemistry, 2025):

Tests used:
[1] = biological target: T1, NADH:quinone oxidoreductase (NQO-P78G) (Pseudomonas aeruginosa, UniProt Q9I4V0, P78G); assay: anaerobic stopped-flow reductive half-reaction (flavin reduction at […] nm), hyperbolic fit; steady-state kinetics; assay type: biochemical
T1 construct: gene PA1024

[2] = tested on: COC1=C(OC)C(=O)C(C)=CC1=O; assay: purified protein; assay type: biochemical, Pseudomonas aeruginosa; conditions: pH 6.0, 25.0 °C

T1 sequence (Q9I4V0 whole entry P78G): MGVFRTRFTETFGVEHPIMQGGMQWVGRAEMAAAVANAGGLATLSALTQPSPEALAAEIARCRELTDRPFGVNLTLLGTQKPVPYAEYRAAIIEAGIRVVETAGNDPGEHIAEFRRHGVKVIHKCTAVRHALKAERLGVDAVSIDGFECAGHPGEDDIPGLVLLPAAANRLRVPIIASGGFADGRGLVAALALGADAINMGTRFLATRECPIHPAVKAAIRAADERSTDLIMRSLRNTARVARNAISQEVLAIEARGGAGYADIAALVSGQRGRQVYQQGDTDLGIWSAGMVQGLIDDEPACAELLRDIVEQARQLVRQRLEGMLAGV

NC(=O)C1=CN([C@@H]2O[C@H](COP(=O)(O)OP(=O)(O)OC[C@H]3O[C@@H](n4cnc5c(N)ncnc54)[C@H](O)[C@@H]3O)[C@@H](O)[C@H]2O)C=CC1 [NADH] was tested, and the Kd [1] was 450 ± 40 µM.

“NADH:quinone oxidoreductase (NQO-P78G) (Pseudomonas aeruginosa PAO1; P78G)” was tested, and the Km ([2]; FMN active site pocket, binds the reduced enzyme (ping-pong bi-bi)) was 10 ± 1 µM.

In the case of “NADH:quinone oxidoreductase (NQO-WT) (Pseudomonas aeruginosa PAO1)”, the Km [2] is reported as 35 ± 6 µM.
